# Measurements reported in the supplement of paper PMC6755084.
# B1: minF1; a variant is named by its letters at N, in order (parent)
# chain: GAGACCGCAACTGAAAAGTTGTTNNNNAANNNNGGNTNNATTTCTGCACGTAGAAGCAAAAGGC
# Variants of: B1
# Assay: fraction ligated after 30 min (ligated reads / total reads); higher = more ligase activity
# Settings: with F1*subA RNA substrate (template-directed ligation), 42 °C
# Method: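 Chip-synthesised pool of minF1 ligase ribozyme variants (single and double substitutions, single to quadruple deletions, bulge and P2 designed variants) was transcribed with T7 and reacted as a pool with excess substrate F1*subA for 30 min at 42 C in 50 mM EPPS pH 8.5, 25 mM MgCl2. Ligated and unligated RNAs were separated by PAGE, barcoded by RT and deep sequenced; fraction ligated = ligated reads / total reads, relative activity = FL / FL of wild-type minF1 (0.76); sequencing FL correlated with PAGE (R2 = 0.98). Sequences are the DNA template of the ribozyme.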
row,Variant,fraction ligated
1,ATCAAAGAGTT A28G G34T T37G,0.00139
2,ATCAAATGGTT A28G G34A T37G,0.0014
3,ACGATATGTGA,0.00174
4,ATAGATGGTGA,0.00397
5,ATAGATGAGTA G34T,0.0034
6,TCGAGGAGTGA T23A,0.00431
7,ATAAGGATGTA A29T,0.00345
8,ACGATGGAGTG G34T,0.156
9,ATAGATGAGTG,0.0071
10,ATAGATGAGTA,0.00311
11,TCAGTGGAGTG G34T,0.0219
12,TCGATGGTGTA T23A,0.00392
13,TGAAGATGTGA A29G,0.00286
14,TGAAGATGTGA A29T,0.00283
15,ATCAAATAGTT A28G G34T T37G A40G,0.0013
16,CGAAGGATGTG T23A A29T,0.0123
17,ATAGTGGAGTT G34T T37G,0.00164
18,TGAAGGATGTA T23A A29T,0.00285
19,ATAGGGATGTG A29T,0.012
20,ATAGATGGGTA,0.00171
21,ATAGATGGGTG,0.00885
22,AGAAGATGTGA T23C A29G,0.00313
23,AGAAGATGTGA T23C A29T,0.00701
24,ATAGATGGGTT G34A G35T T37G,0.0013

row,Variant,fraction ligated
1,ATCAAAGGGTT A28G G34A G35T T37G,0.00185
2,ACGAGATGTGA A29T,0.00193
3,ACGAGATGTGA A29G,0.00268
4,ACGAGGAGTGA,0.000641
5,ACAGTGGAGTT G34T T37G A40G,0.00141
6,AGAAGGATTGA T23A A29T,0.00594
7,TCGAGGATGTA T23A A29T,0.00462
8,ATAGTGAGTGA,0.00282
9,CGAAGGATGTG A29T,0.0152
10,TCGATGGTTGA,0.00257
11,ATAGGGTGTGA A29T,0.00231
12,ATAGATATTGA,0.00398
13,TCGATATGTGA,0.00214
14,TCGATGAGTGA,0.00207
15,ACGAGGTGTGA A29T,0.00316
16,ACGATGAGTGA,0.0021
17,ACGAGGATGTG A29T,0.0152
18,ATAGATGGGTT G34T T37G A40G,0.000495
19,ATAGTGGAGTG G34T,0.0109
20,ATAAGGAGTGA,0.000696
21,TGAAGATGTGA T23A A28T A29G,0.00603
22,TCGATGGAGTG T23A G34T,0.25
23,TCGATGATTGA,0.00257
24,ATAGTGATTGA,0.00291

row,Variant,fraction ligated
1,ATCAAAGGGTG A28G,0.0051
2,ATCAAAGTTGA A28G,0.0038
3,ATAGGGAGTGA,0.00238
4,CGAAGATGTGA T23A A29G,0.00107
5,CGAAGATGTGA T23A A29T,0.00299
6,TGAAGGATTGA T23A A29T,0.00566
7,CGAAGGTGTGA A29T,0.00384
8,TCAGTGGAGTT T23A G34T T37G A40G,0.000501
9,ATAGGGATGTG,0.00618
10,ATAGGGATGTA,0.0024
11,ATAATGGAGTG G34T,0.0113
12,ATAGAGATTGA,0.0019
13,TCGATGGAGTA G34T,0.143
14,ATAATGGATGA,0.00189
15,TCGATGATGTG,0.00893
16,TCGATGATGTA,0.00391
17,TCAGTGGATGA T23A,0.00222
18,TCAGTGGGTGA T23A,0.0036
19,TCAGTGGTGTA T23A,0.00153
20,TCGAGGAGTGA T23A A29T,0.00108
21,ATAATGAGTGA,0.00461
22,TCGATGGAGTG,0.0131
23,TCGATGGAGTA,0.00705
24,AGAAGGATGTG T23C A29T,0.00819

row,Variant,fraction ligated
1,ACGAGATGTGA,0.00357
2,TCGAGATGTGA A29T,0.00243
3,TCGAGATGTGA A29G,0.00245
4,ATCAAAGTGTG A28G,0.00272
5,ATCAAATAGTA A28G,0.00232
6,ATCAAAAGTGA A28G,0.00266
7,ATAATGGAGTA,0.00371
8,ATAATGGAGTG,0.00646
9,ATAATGGAGTT G34T T37G,0.00161
10,TCGAGGATGTA,0.00168
11,TCGAGGATGTG,0.00804
12,AGAAGATGTGA T23A A28T A29G,0.00449
13,ATAAGGATGTG,0.00567
14,ATAAGGATGTA,0.00287
15,ATAAGGATTGA A29T,0.00367
16,CGAAGGATGTA T23A A29T,0.0054
17,TCGAGGATTGA,0.00327
18,TCGAGGATGTG T23A A29T,0.0128
19,ATCAAAGGGTT A28G G34A T37G,0.00203
20,TCGAGATGTGA,0.0048
21,ATAGTGGTGTG,0.00637
22,ATAGTGGTGTA,0.0012
23,ATCAAATGGTG A28G G34T,0.0032
24,ATCAAATGGTG A28G G34A,0.00551

row,Variant,fraction ligated
1,TCGAGATGTGA T23A,0.00396
2,ATAATGGAGTA G34T,0.00307
3,ACGAGGAGTGA A29T,0.00454
4,ATCAAATGGTA A28G,0.0012
5,ACAGTGGATGA,0.00257
6,ATAGTGGAGTA,0.00346
7,ATAGTGGAGTG,0.00518
8,ATCAAAATTGA A28G,0.00208
9,CGAAGATGTGA A28T A29G,0.00384
10,ATAAGGTGTGA A29T,0.00316
11,CGAAGGATTGA A29T,0.00943
12,TCAGTGTGTGA T23A,0.00289
13,ATAGTGGAGTT G34T T37G A40G,0.000271
14,ATCAAAGGGTA A28G G34A,0.00347
15,ATCAAAGGGTA A28G G34T,0.00211
16,TCGAGGTGTGA T23A A29T,0.00169
17,ATAGTGATGTG,0.00732
18,ATAGTGATGTA,0.00203
19,ATCAAATAGTG A28G,0.00674
20,ATCAAAGAGTG A28G G34T,0.00562
21,ATAAGATGTGA A28T A29G,0.0107
22,TCGAGGATTGA T23A,0.00135
23,ATAGATATGTA,0.00365
24,ATAGATATGTG,0.013

row,Variant,fraction ligated
1,TCAGTGGAGTT G34T T37G A40G,0.00151
2,ACGAGGATGTA A29T,0.00647
3,ATCAAAGTGTA A28G,0.00412
4,TCGATGGAGTG T23A,0.02
5,ATCAAAATGTA A28G,0.0033
6,ATAAGGTGTGA,0.00238
7,ATAATGATTGA,0.00291
8,ATAGATGGGTG G34A,0.00708
9,ATAGATGGGTG G34T,0.00668
10,ATAGAGGTGTA,0.00141
11,ATAGAGGTGTG,0.00428
12,ATAGGGTGTGA,0.00288
13,ATAGAGGAGTA G34T,0.00281
14,ACGATGATGTG,0.00517
15,ACGATGATGTA,0.00144
16,TGAAGATGTGA A28T A29G,0.00314
17,TCGAGGATGTG A29T,0.0133
18,ATCAAAGGGTT A28G G34T T37G,0.00171
19,TCGAGGATGTA A29T,0.00472
20,ATAAGGATGTG A29T,0.00947
21,TGAAGGATGTA A29T,0.00266
22,TCGAGATGTGA T23A A29G,0.00586
23,TCGAGATGTGA T23A A29T,0.00198
24,AGAAGATGTGA T23A A29G,0.00362

row,Variant,fraction ligated
1,AGAAGATGTGA T23A A29T,0.00161
2,ATAATATGTGA,0.00335
3,ATAGAGGATGA,0.00219
4,ATAGGATGTGA A29T,0.00303
5,ATAGGATGTGA A29G,0.00633
6,TCGATGATTGA T23A,0.00304
7,AGAAGGAGTGA A29T,0.00436
8,ACAGTGGAGTG,0.00883
9,TCGATGGAGTT T23A G34T T37G,0.001
10,ATAATGGAGTT G34T T37G A40G,0.00113
11,ATCAAAGGGTG A28G G34T,0.00328
12,ATCAAAGGGTG A28G G34A,0.00764
13,ATCAAATGGTG A28G,0.00534
14,CGAAGATGTGA T23A A28T A29G,0.00787
15,ATAGAGGTTGA,0.00247
16,TCGATGGTTGA T23A,0.00216
17,TCAGTGGTTGA,0.00261
18,TCGAGGATGTG T23A,0.00538
19,TCGATGAGTGA T23A,0.00204
20,ATAGTGGGTGA,0.00334
21,AGAAGGTGTGA A29T,0.0036
22,ATAGGGATTGA,0.00436
23,TCGATGTGTGA,0.0025
